These results are taken from the RNAGym collection of RNA variant scans (doi:10.1073/pnas.2313332121).

First the molecules themselves.
B1: TPR t1 (parent)
chain: GACCAAUCUGCCCUCAGAGCUCGAGAACAUCUUCGGAUGCAGAGGAGGCAGGCUUCGGUGGCGCGAUAGCGCCAACGUCCUCAACCUCCAAUGCAUCCCACCACAUGAUGAUGCCUGAAGAGCCUUGGUUUUUUG

Variants of B1 are the subject of the data set. The data set can be described thus: polymerase ribozyme fitness, log enrichment relative to wild type (log ratio); higher = more active; in vitro selection for triplet polymerase activity. The method in brief: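 Mutant libraries of each subunit of a heterodimeric triplet polymerase ribozyme were built by PCR and transcribed. Each library went through one round of in vitro selection in triplicate: annealing with biotinylated primer, partner subunit and triplets, frozen incubation at −7 °C, gel excision of extended constructs, streptavidin-bead capture and RT-PCR. Input and output libraries were Illumina-sequenced; only genotypes with ≥10 input reads and ≥1 read per output were kept. Fitness is log2(genotype enrichment/wild-type enrichment), using inverse-variance-weighted replicate averages.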
For the variant U14C C70A G117U, the “polymerase ribozyme fitness (log ratio)” value was -5.57.

For C15A G57U, the “polymerase ribozyme fitness (log ratio)” value is -2.02.

With C15A G57C, the “polymerase ribozyme fitness (log ratio)” value is -1.91.

On to U14G G69U C85A, for which the “polymerase ribozyme fitness (log ratio)” value is -2.32.

On to C15A G57U G61A U112C G113A U132C, for which the “polymerase ribozyme fitness (log ratio)” value was -6.11.

Take C15A A29U: the “polymerase ribozyme fitness (log ratio)” value was -4.28.

Turning to C15G G45C C53U A91U, the “polymerase ribozyme fitness (log ratio)” value was -5.56.

As for C15G G39U C73G U112A G122U, the “polymerase ribozyme fitness (log ratio)” value is -2.91.

On to U14C U106A G110A U112A, for which the “polymerase ribozyme fitness (log ratio)” value was -3.36.

As to C15A C73G C123A, the “polymerase ribozyme fitness (log ratio)” value was -2.17.

Consider C15G C22U, for which the “polymerase ribozyme fitness (log ratio)” value was -5.53.

Turning to C15A A37U G52C G63A U87A G120C, the “polymerase ribozyme fitness (log ratio)” value was -4.33.

Regarding U14G C70G, the “polymerase ribozyme fitness (log ratio)” value was -3.6.

Take U14C C104U: the “polymerase ribozyme fitness (log ratio)” value is -0.978.

Turning to C15A U92C G110C C115U G127U, the “polymerase ribozyme fitness (log ratio)” value is -6.

For C15A G47C U133C, the “polymerase ribozyme fitness (log ratio)” value is -3.12.

With C15A U59A C101A, the “polymerase ribozyme fitness (log ratio)” value is -3.37.

As for U14A G36C G47A, the “polymerase ribozyme fitness (log ratio)” value was -4.55.

In the case of C15G G19A C73U U112A G122U, the “polymerase ribozyme fitness (log ratio)” value is -3.84.

With U14C A27U G44U C49A C94U G117C G127C, the “polymerase ribozyme fitness (log ratio)” value was -7.98.

For C15G A29C G71C C86U G113U G120U U129A, the “polymerase ribozyme fitness (log ratio)” value was -6.08.

Regarding U14A U21A U30G G58C C76U U112C A118C, the “polymerase ribozyme fitness (log ratio)” value was -5.04.

In the case of U14A G63C A83U C86A U112A U131A, the “polymerase ribozyme fitness (log ratio)” value was -2.09.

For C15G G63U U96A C99U G117U, the “polymerase ribozyme fitness (log ratio)” value is -5.62.

Take C15G G36A A100C C124G: the “polymerase ribozyme fitness (log ratio)” value is -3.29.

For the variant U14C A66U, the “polymerase ribozyme fitness (log ratio)” value is -3.21.

Turning to U14A G93A C102U, the “polymerase ribozyme fitness (log ratio)” value was -4.36.

For the variant C15A A37U C76G, the “polymerase ribozyme fitness (log ratio)” value was -2.94.

Regarding C15A A37U C76U, the “polymerase ribozyme fitness (log ratio)” value was -2.8.

Take U14A G44C G58U: the “polymerase ribozyme fitness (log ratio)” value was -2.72.

Turning to C15G G52A, the “polymerase ribozyme fitness (log ratio)” value was -2.6.

U14A G120C: the “polymerase ribozyme fitness (log ratio)” value worked out at 0.0767.

As to C15A C49A U55G A74C U81G A90G G117U, the “polymerase ribozyme fitness (log ratio)” value was -3.52.

For U14G U96A G110A, the “polymerase ribozyme fitness (log ratio)” value was -3.75.

Consider C15A U55G G71A C88A, for which the “polymerase ribozyme fitness (log ratio)” value was -2.35.

For C15A A46C G52C A91U U129G, the “polymerase ribozyme fitness (log ratio)” value was -6.42.

Regarding C15A U126A, the “polymerase ribozyme fitness (log ratio)” value was -4.9.

Turning to U14G U112A, the “polymerase ribozyme fitness (log ratio)” value was -0.444.

On to C15A G57U A91G C123A, for which the “polymerase ribozyme fitness (log ratio)” value was -3.21.

For U14G A91U A111G, the “polymerase ribozyme fitness (log ratio)” value is -4.63.

Take U14A U32C C82A: the “polymerase ribozyme fitness (log ratio)” value was -3.24.

Regarding C15A C62G U92C A121U, the “polymerase ribozyme fitness (log ratio)” value was -4.25.

In the case of C15A G69U, the “polymerase ribozyme fitness (log ratio)” value is -1.16.

With U14C A26G A50G G52C U106C G117A, the “polymerase ribozyme fitness (log ratio)” value is -5.87.

In the case of C15G A119G, the “polymerase ribozyme fitness (log ratio)” value was determined as 0.41.

As to U14C C15U G39A G117A, the “polymerase ribozyme fitness (log ratio)” value was -0.915.

Turning to C15G A74U G117U, the “polymerase ribozyme fitness (log ratio)” value was -0.0169.

As for U14G C62U, the “polymerase ribozyme fitness (log ratio)” value is -1.97.

For the variant U14G A50C C56G C89U A95G, the “polymerase ribozyme fitness (log ratio)” value was -3.5.

Take C15G C40A C76G G77C G117C: the “polymerase ribozyme fitness (log ratio)” value is -0.354.

U14G C53U C85A C88G: the “polymerase ribozyme fitness (log ratio)” value was -3.97.

C15A G25C C34G C64U G113A: the “polymerase ribozyme fitness (log ratio)” value was -7.48.

Consider U14G G42C A46C C53U, for which the “polymerase ribozyme fitness (log ratio)” value was -4.19.

On to C15G A43U A84U, for which the “polymerase ribozyme fitness (log ratio)” value was -5.64.

For C15G C85G U96A C114A G117C, the “polymerase ribozyme fitness (log ratio)” value is -3.58.

With C15A G42U C79U C115G C123A, the “polymerase ribozyme fitness (log ratio)” value is -5.36.

For the variant C15A G39A G61A C123U, the “polymerase ribozyme fitness (log ratio)” value is -0.349.

As to U14C C70G C82U U106A, the “polymerase ribozyme fitness (log ratio)” value was -3.34.

For U14A G47C, the “polymerase ribozyme fitness (log ratio)” value is -2.72.

On to U14A G47U, for which the “polymerase ribozyme fitness (log ratio)” value was -3.55.

In the case of U14C C97U, the “polymerase ribozyme fitness (log ratio)” value was -3.31.

As for C15G C53G G60A, the “polymerase ribozyme fitness (log ratio)” value was -3.25.

Consider C15G A95U U116G, for which the “polymerase ribozyme fitness (log ratio)” value is -2.63.

With U14G C15U C49G G58A U78C, the “polymerase ribozyme fitness (log ratio)” value was -5.83.

Turning to U14G C40G C73A A105U, the “polymerase ribozyme fitness (log ratio)” value is -4.25.

In the case of U14C G58U C70U G71U, the “polymerase ribozyme fitness (log ratio)” value is -3.19.

Regarding U14A G51U C124U G135A, the “polymerase ribozyme fitness (log ratio)” value is -3.03.

Take U14G C89A C99G G113C C115U: the “polymerase ribozyme fitness (log ratio)” value is -7.29.

On to C15A G36U G61A, for which the “polymerase ribozyme fitness (log ratio)” value was -3.38.

On to U14C G110A, for which the “polymerase ribozyme fitness (log ratio)” value was -2.2.

As for C15A G45A C97U A121G U130G, the “polymerase ribozyme fitness (log ratio)” value was -0.808.

For the variant U14C A111U, the “polymerase ribozyme fitness (log ratio)” value is -4.43.

On to C15A G48C G52C, for which the “polymerase ribozyme fitness (log ratio)” value was -4.44.

As for U14C C34A U87A, the “polymerase ribozyme fitness (log ratio)” value was -4.01.

U14G C34A A121G: the “polymerase ribozyme fitness (log ratio)” value is -0.374.

U14C C53G C73U A83G C94U: the “polymerase ribozyme fitness (log ratio)” value was -3.11.

Turning to C15G C70U A84G, the “polymerase ribozyme fitness (log ratio)” value is -5.53.

For the variant C15G G42A G69U C88G, the “polymerase ribozyme fitness (log ratio)” value was -2.25.

Turning to C15A C82U C89A U96A C104U, the “polymerase ribozyme fitness (log ratio)” value is -3.39.

In the case of U14G A27G G113A A121G U133A, the “polymerase ribozyme fitness (log ratio)” value was -1.42.

For U14A G63U C79U, the “polymerase ribozyme fitness (log ratio)” value was -3.41.

For U14G A37C G47A G110U G120U, the “polymerase ribozyme fitness (log ratio)” value is -5.99.

For the variant C15A G45U G61U A84U C123U, the “polymerase ribozyme fitness (log ratio)” value is -2.78.
